The stoichiometry N is a count of units in the complex or per binding partner.

For 1 substance, stoichiometry N results are on record in paper PMC2938849.

For the assay, the target named is Hsp104ΔM (yeast) (UniProt P31539). The assay can be described thus: SEC. A general note: Size exclusion chromatography separates by hydrodynamic size, large species first.

On to “Hsp104ΔM (from UniProt P31539 1-908) (natural protein)”, for which the stoichiometry N worked out at 6.
